# Laboratory results taken from paper PMC6448480, “A Two-Way Proteome Microarray Strategy to Identify Novel Mycobacterium tuberculosis-Human Interactors” (Frontiers in Cellular and Infection Microbiology, 2019).
# B1: Rv0577 (Putative glyoxylase Cfp32) on the Mtb proteome microarray (natural protein)
# chain: MPKRSEYRQGTPNWVDLQTTDQSAAKKFYTSLFGWGYDDNPVPGGGGVYSMATLNGEAVAAIAPMPPGAPEGMPPIWNTYIAVDDVDAVVDKVVPGGGQVMMPAFDIGDAGRMSFITDPTGAAVGLWQANRHIGATLVNETGTLIWNELLTDKPDLALAFYEAVVGLTHSSMEIAAGQNYRVLKAGDAEVGGCMEPPMPGVPNHWHVYFAVDDADATAAKAAAAGGQVIAEPADIPSVGRFAVLSDPQGAIFSVLKPAPQQ
# B2: Rv3241c (Ribosome hibernation promotion factor, Hpf) on the Mtb proteome microarray (natural protein)
# chain: MSRLAVDSGQVLAEPKSNAEIVFKGRNVEIPDHFRIYVSQKLARLERFDRTIYLFDVELDHERNRRQRKSCQRVEITARGRGPVVRGEACADSFYAALESAVVKLESRLRRGKDRRKVHYGDKTPVSLAEATAVVPAPENGFNTRPAEAHDHDGAVVEREPGRIVRTKEHPAKPMSVDDALYQMELVGHDFFLFYDKDTERPSVVYRRHAYDYGLIRLA
# Target: T1, myc-tagged SMAD2 (human, UniProt Q15796 1-467, labeled with Cy3)
# T1 construct: SMAD2, human; also called SMAD2-myc; source: cloned into pCMV-C-myc vector, purified as previously reported (Li et al., 2013)
# Assay: peptide or protein array
# Details: both partners purified
# T1 sequence (Q15796 whole entry): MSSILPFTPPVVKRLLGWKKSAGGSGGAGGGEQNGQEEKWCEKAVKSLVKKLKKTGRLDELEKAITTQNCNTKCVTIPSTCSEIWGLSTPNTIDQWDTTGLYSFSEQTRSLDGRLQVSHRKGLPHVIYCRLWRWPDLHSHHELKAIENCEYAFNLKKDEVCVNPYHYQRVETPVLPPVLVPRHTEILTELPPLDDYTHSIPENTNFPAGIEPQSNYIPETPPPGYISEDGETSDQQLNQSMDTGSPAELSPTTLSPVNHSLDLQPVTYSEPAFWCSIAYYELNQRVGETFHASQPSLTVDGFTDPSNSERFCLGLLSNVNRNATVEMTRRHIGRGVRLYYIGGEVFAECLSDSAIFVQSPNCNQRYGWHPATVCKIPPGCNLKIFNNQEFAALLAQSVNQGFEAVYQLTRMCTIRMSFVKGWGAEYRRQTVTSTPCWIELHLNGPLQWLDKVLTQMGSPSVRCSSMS
binder,measurement,value
B1,binding result,binds
B2,binding result,binds
